Results published in US9644034B2, “Anti-RSPO2 antibodies and uses thereof” (OncoMed Pharmaceuticals, Inc., priority 2011, dated 2017).
Values belong to the molecule of their own block, whether it stands above or below them.

What was measured:
LGR5 = biological target: T1, LGR5 (Homo sapiens, UniProt O75473); assay: FACS binding of RSPO-Fc fusion proteins to LGR5 expressed on HEK-293 cells; conditions: Fc fusion proteins 10 μg/ml
T1 construct: ligating amino acids 22-564 of human LGR5 to an N-terminal FLAG tag; expressed in transfected cells; host or cells: HEK-293
T1 sequence (O75473 22-564): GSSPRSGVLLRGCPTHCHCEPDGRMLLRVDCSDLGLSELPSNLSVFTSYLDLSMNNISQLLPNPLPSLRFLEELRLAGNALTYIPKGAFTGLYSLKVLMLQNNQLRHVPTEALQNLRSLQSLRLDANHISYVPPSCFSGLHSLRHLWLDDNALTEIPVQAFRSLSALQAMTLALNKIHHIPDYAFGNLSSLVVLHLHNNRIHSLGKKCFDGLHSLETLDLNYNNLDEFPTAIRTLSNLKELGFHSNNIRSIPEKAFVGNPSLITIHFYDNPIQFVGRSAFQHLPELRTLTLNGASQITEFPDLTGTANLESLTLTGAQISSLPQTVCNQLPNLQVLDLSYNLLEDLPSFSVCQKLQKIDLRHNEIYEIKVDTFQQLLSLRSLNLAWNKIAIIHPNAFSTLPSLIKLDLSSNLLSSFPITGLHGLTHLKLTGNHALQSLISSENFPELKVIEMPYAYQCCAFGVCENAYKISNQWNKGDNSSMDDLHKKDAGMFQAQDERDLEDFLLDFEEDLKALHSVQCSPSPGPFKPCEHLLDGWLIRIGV
Excerpt: A cell surface LGR5 protein was generated by ligating amino acids 22-564 of human LGR5 to an N-terminal FLAG tag and to the transmembrane domain of CD4 and a C-terminal GFP protein tag using standard recombinant DNA techniques (FLAG-LGR5-CD4TM-GFP). RSPO-Fc constructs were generated using standard recombinant DNA techniques. Specifically, full-length human RSPO1, RSPO2, RSPO3 and RSPO4 were ligated in-frame to a human Fc region and the recombinant RSPO-Fc proteins were expressed in insect cells using baculovirus. The fusion proteins were purified from the insect medium using protein A chromatography.
(§1) HEK-293 cells were transiently transfected with the FLAG-LGR5-CD4TM-GFP construct. After 48 hours, transfected cells were suspended in ice cold PBS containing 2% FBS and heparin and incubated on ice in the presence of 10 μg/ml RSPO1-Fc, RSPO2-Fc, RSPO3-Fc, RSPO4-Fc, or FZD8-Fc fusion proteins for 15 minutes. A second incubation with 100 μl PE-conjugated anti-human Fc secondary antibody was performed to detect cells bound by the Fc fusion proteins. Cells were incubated with an anti-FLAG antibody (Sigma-Aldrich, St. Louis, Mo.) as a positive control and with an anti-PE antibody as a negative control. The cells were analyzed on a FACSCalibur instrument (BD Biosciences, San Jose, Calif.) and the data was processed using FlowJo software.

human RSPO1 [1] = biological target: T2, human RSPO1 (Homo sapiens, UniProt Q2MKA7); assay: FACS screening of hybridoma supernatants on HEK-293 cells expressing FLAG-RSPO1furin-CD4TM-GFP; format: binding
T2 construct: followed by the two furin-like domains of RSPO1 (aa 34-135); expressed in transfected cells; host or cells: HEK-293
Excerpt: Antibodies were generated against recombinant human RSPO1 protein amino acids 31-263 (R&D Systems, Minneapolis, Minn.). Mice (n=3) were immunized with RSPO1 protein using standard techniques. Sera from individual mice were screened against RSPO1 approximately 70 days after initial immunization using FACS analysis. The animal with the highest antibody titer was selected for final antigen boost after which spleen cells were isolated for hybridoma production. SP2/0 cells were used as fusion partners for the mouse spleen cells. Hybridoma cells were plated at 1 cell per well in 96 well plates, and the supernatants were screened against human RSPO1 by FACS analysis.
For FACS screening of anti-RSPO1 antibodies a chimeric fusion protein enabling cell surface expression of the N-terminal furin-like domains of human RSPO1 was constructed.
as §1, with “were” for “were transiently”, “FLAG-RSPOlfurin-CD4TM-GFP.” for “the FLAG-LGR5-CD4TM-GFP construct.”, “50 μl of hybridoma supernatants” for “10 μg/ml RSPO1-Fc, RSPO2-Fc, RSPO3-Fc, RSPO4-Fc, or FZD8-Fc fusion proteins”, “30” for “15”, “antibody.” for “the Fc fusion proteins.”, “and” for “and with”

[2] = system: RSPO1-induced β-catenin signaling; assay: TOPflash luciferase assay in HEK-293 cells, Wnt3a plus human RSPO1; format: cell-based; conditions: Wnt3a 5 ng/ml, RSPO1 10 ng/ml; antibodies 10 to 0.625 μg/ml
Description: HEK-293 cells were transfected with a 6×TCF-luciferase reporter vector (TOPflash, Millipore, Billerica, Mass.). After 24-48 hrs, the transfected HEK-293 cells were incubated with a combination of Wnt3a (5 ng/ml) and human RSPO1 (10 ng/ml, R&D BioSystems) in the presence of anti-RSPO1 antibodies 89M2, 89M4, 89M5, 89M7, 89M19, and 89M25, or 2 irrelevant control antibodies 254M14 and 254M26 (2-fold dilutions at 10 μg/ml to 0.625 μg/ml). The cells were incubated for 16 hours and luciferase activity was measured using Steady-Glo® Luciferase Assay System according to the manufacturer's instructions (Promega, Madison, Wis.).

binding of RSPO1 to LGR5 = biological target: T3, binding of RSPO1 to LGR5 (Homo sapiens, UniProt Q2MKA7); assay: FACS: blocking of soluble RSPO1-Fc binding to LGR5 on HEK-293 cells; conditions: RSPO1-Fc 10 μg/ml, antibodies 10 μg/ml
T3 construct: full-length human RSPO1, RSPO2, RSPO3 and RSPO4 were ligated in-frame to a human Fc region; made in house; host or cells: RSPO1-Fc: insect cells (baculovirus); LGR5 construct: transiently transfected HEK-293
Description: HEK-293 cells were transiently transfected with the FLAG-LGR5-CD4TM-GFP construct (previously described in Example 2). After 48 hours, transfected cells were suspended in ice cold PBS containing 2% FBS and heparin and incubated on ice in the presence of RSPO1-Fc protein (10 μg/ml) and antibodies 89M2, 89M4, 89M5, 89M7, 89M19 or 89M25 (10 μg/ml). A second incubation with 100 μl PE-conjugated anti-human Fc secondary antibody was performed to detect cells bound by the RSPO1-Fc fusion protein. The cells were analyzed on a FACSCalibur instrument (BD Biosciences, San Jose, Calif.) and the data was processed using FlowJo software.

OV19 ovarian tumor cells = assay: OV19 ovarian tumor xenograft growth in NOD/SCID mice; format: in vivo; conditions: day 35, vs control antibody; antibodies 15 mg/kg once a week, intraperitoneal
Description: Dissociated OV19 ovarian tumor cells (1×10^5cells) were injected in the mammary fat pads of 6-8 week old NOD/SCID mice. Tumors were allowed to grow for 45 days until they reached an average volume of 134 mm^3. The mice were randomized (n=10 per group) and treated with anti-RSPO1 antibody 89M5, 89M25, taxol, a combination of 89M5 and taxol, a combination of 89M25 and taxol, or control antibody 1B7.11. Antibodies were dosed at 15 mg/kg once a week, and taxol was dosed at […] once a week. Administration of the antibodies and taxol was performed via injection into the intraperitoneal cavity. Tumor growth was monitored and tumor volumes were measured with electronic calipers at the indicated time points. Data are expressed as mean±S.E.M.

human RSPO1 [3] = biological target: T2, human RSPO1; assay: FACS binding of 89M5 and humanized 89M5 to HEK293 cells expressing FLAG-RSPO1furin-CD4TM-GFP; conditions: five-fold serial dilutions
Description: HEK293 cells were transiently transfected with an expression vector encoding FLAG-RSPO1furin-CD4TM-GFP. As described in Example 5, FLAG-RSPO1furin-CD4TM-GFP is a chimeric fusion protein enabling cell surface expression of the N-terminal furin-like domains of human RSPO1. FLAG-RSPO1 furin-CD4TM-GFP transfected cells were incubated in the presence of anti-RSPO1 antibody 89M5 or humanized anti-RSPO1 antibody h89M5-H2L2. Five-fold serial dilutions of each antibody were examined for their ability to bind to the RSPO1 expressing cells. The cells were stained with Phycoerythrin conjugated anti-IgG to reveal bound antibody. The cells were analyzed on a FACSCalibur instrument (BD Biosciences, San Jose, Calif.) and the data was processed using FlowJo software.

T2 sequence (Q2MKA7 34-135): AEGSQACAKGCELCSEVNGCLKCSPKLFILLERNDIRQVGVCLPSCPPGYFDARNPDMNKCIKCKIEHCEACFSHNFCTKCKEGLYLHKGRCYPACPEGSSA
T3 sequence (Q2MKA7 21-263): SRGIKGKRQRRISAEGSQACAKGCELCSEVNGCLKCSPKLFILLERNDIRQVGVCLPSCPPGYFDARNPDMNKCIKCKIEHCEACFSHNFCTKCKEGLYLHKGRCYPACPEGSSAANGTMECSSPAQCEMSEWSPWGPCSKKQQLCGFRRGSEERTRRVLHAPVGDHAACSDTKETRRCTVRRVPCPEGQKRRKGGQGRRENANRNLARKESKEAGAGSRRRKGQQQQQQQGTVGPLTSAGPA

binding to LGR5 expressed on the surface of HEK-293 cells (LGR5): bound
B1: RSPO4: full-length human RSPO4 ligated to a human Fc region (protein)
chain: LNRRKKQVGTGLGGNCTGCIICSEENGCSTCQQRLFLFIRREGIRQYGKCLHDCPPGYFGIRGQEVNRCKKCGATCESCFSQDFCIRCKRQFYLYKGKCLPTCPPGTLAHQNTRECQGECELGPWGGWSPCTHNGKTCGSAWGLESRVREAGRAGHEEAATCQVLSESRKCPIQRPCPGERSPGQKKGRKDRRPRKDRKLDRRLDVRPRQPGLQP
modifications: left off: a dimerising Fc or GST
notes: full-length human RSPO4 ligated to a human Fc region

binding to RSPO1 (FACS) (human RSPO1 [1]): bound
blocking of binding of RSPO1 to LGR5 (binding of RSPO1 to LGR5): blocked
B2: 89M25: anti-RSPO1 monoclonal antibody; same heavy and light chain variable regions as 89M5 (antibody, V domains shown)
VH: EVQLQQSGPELVKPGASVKISCKTSGYTFTGYTMHWVRQSHGKTLEWIGGINPNNGGTTYNQNFKGKATLTVEKSSTTAYLELRSLTSEDSALYYCARKEFSDGYYFFAYWGQGTLVTVSA
VL: DIVMTQSHKFMSTSVGDRVNITCKASQDVIFAVAWYQQKPGQSPKLLIYWASTRHTGVPDRFTGSVSGTDYTLTISSVQAEDLALYYCQQHYSTPWTFGGGTKLEIK
blocking of RSPO1-induced β-catenin signaling [2]: blocked
reduction in tumor growth (OV19 ovarian tumor cells): 25%

binding to LGR5 expressed on the surface of HEK-293 cells (LGR5): bound
B3: RSPO3: full-length human RSPO3 ligated to a human Fc region (protein)
chain: QNASRGRRQRRMHPNVSQGCQGGCATCSDYNGCLSCKPRLFFALERIGMKQIGVCLSSCPSGYYGTRYPDINKCTKCKADCDTCFNKNFCTKCKSGFYLHLGKCLDNCPEGLEANNHTMECVSIVHCEVSEWNPWSPCTKKGKTCGFKRGTETRVREIIQHPSAKGNLCPPTNETRKCTVQRKKCQKGERGKKGRERKRKKPNKGESKEAIPDSKSLESSKEIPEQRENKQQQKKRKVQDKQKSVSVSTVH

binding to human RSPO1 (FACS) (human RSPO1 [3]): bind
B4: h89M5-H2L2: humanized anti-RSPO1 antibody; heavy chain SEQ ID NO:68, light chain SEQ ID NO:69 (antibody)
heavy: QVQLVQSGAEVKKPGASVKVSCKTSGYTFTGYTMHWVRQAPGQRLEWMGGINPNNGGTTYNQNFKGRVTITRDTSASTAYMELSSLRSEDTAVYYCARKEFSDGYYFFAYWGQGTLVTVSSASTKGPSVFPLAPCSRSTSESTAALGCLVKDYFPEPVTVSWNSGALTSGVHTFPAVLQSSGLYSLSSVVTVPSSNFGTQTYTCNVDHKPSNTKVDKTVERKCCVECPPCPAPPVAGPSVFLFPPKPKDTLMISRTPEVTCVVVDVSHEDPEVQFNWYVDGVEVHNAKTKPREEQFNSTFRVVSVLTVVHQDWLNGKEYKCKVSNKGLPAPIEKTISKTKGQPREPQVYTLPPSREEMTKNQVSLTCLVKGFYPSDIAVEWESNGQPENNYKTTPPMLDSDGSFFLYSKLTVDKSRWQQGNVFSCSVMHEALHNHYTQKSLSLSPGK
light: DIQMTQSPSSLSASVGDRVTITCKASQDVIFAVAWYQQKPGKAPKLLIYWASTRHTGVPSRFSGSGSGTDYTLTISSLQPEDFATYYCQQHYSTPWTFGGGTKVEIKRTVAAPSVFIFPPSDEQLKSGTASVVCLLNNFYPREAKVQWKVDNALQSGNSQESVTEQDSKDSTYSLSNTLTLSKADYEKHKVYACEVTHQGLSSPVTKSFNRGEC
modifications: h89M5-H2L2 Heavy chain amino acid sequence; h89M5-H2L2 Light chain amino acid sequence
